Key:
[1] = target: T1, mouse NPR1 extracellular domain expressed with a C-terminal myc-myc-hexahistidine (mNPR1-MMH) (mouse, UniProt P18293 29-469); test: SPR, mAb captured, 37 C
Method: (§1) Equilibrium dissociation constant (KD) for different NPR1 reagents binding to purified anti-NPR1 monoclonal antibodies (mAbs) were determined using a real-time surface plasmon resonance based Biacore 4000 biosensor. All binding studies were performed in 10 mM HEPES, 150 mM NaCl, 3 mM EDTA, and 0.05% v/v Surfactant Tween-20, pH 7.4 (HBS-ET) running buffer at 25° C. and 37° C. The Biacore CM5 sensor chip surface was first derivatized by amine coupling with either mouse anti-human Fc specific mAb (GE Healthcare, #BR100839) or goat anti-human Fcy specific polyclonal antibody (Jackson ImmunoResearch Laboratories, #BR-1008-39) to capture anti-NPR1 mAbs.
Target sequence in this assay (P18293 other isoform, or with tags, fused parts or gaps): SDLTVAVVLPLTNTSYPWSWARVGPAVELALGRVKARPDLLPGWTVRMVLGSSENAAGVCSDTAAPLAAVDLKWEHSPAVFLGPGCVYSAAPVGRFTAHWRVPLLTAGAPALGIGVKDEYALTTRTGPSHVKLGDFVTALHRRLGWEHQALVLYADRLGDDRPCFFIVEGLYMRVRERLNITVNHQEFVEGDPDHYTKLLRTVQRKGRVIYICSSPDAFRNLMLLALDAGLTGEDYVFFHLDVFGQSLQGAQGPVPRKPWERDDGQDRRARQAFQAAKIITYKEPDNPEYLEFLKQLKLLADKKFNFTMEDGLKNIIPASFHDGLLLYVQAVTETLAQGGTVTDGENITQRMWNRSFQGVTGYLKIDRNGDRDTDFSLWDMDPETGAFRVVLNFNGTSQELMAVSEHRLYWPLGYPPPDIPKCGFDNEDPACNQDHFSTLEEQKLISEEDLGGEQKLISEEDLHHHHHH

[2] = target: T2, human NPR1 extracellular domain expressed with a C-terminal mouse IgG2a (hNPR1-mFc) (human); test: SPR, mAb captured, 37 C
T2 construct: also called hNPR1-Fc; human NPR1 dimer
T2 chain: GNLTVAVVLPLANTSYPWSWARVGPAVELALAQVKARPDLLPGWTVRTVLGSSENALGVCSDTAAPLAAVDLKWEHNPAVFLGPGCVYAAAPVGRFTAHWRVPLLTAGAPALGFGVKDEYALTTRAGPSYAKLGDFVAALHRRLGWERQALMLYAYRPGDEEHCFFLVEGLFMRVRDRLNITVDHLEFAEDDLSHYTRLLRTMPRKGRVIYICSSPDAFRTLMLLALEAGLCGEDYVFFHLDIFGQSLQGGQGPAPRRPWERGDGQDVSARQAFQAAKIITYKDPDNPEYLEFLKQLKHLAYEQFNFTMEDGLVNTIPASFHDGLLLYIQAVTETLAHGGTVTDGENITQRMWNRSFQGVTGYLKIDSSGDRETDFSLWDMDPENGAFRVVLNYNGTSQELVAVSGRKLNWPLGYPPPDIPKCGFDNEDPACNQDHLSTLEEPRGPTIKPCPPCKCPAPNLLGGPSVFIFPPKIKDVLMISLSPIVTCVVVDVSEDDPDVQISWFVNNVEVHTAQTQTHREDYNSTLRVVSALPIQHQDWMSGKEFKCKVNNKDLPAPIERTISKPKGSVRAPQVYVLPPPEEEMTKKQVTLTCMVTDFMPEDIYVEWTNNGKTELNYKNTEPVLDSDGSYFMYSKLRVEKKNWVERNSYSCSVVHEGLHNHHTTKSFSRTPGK
Method: as §1

[3] = target: T3, monkey NPR1 extracellular domain expressed with a C-terminal myc-myc-hexahistidine (mfNPR1-MMH) (monkey, UniProt P16066 33-473 (human entry)); test: SPR, mAb captured, 37 C
T3 construct: also called monomeric monkey NPR1
T3 chain: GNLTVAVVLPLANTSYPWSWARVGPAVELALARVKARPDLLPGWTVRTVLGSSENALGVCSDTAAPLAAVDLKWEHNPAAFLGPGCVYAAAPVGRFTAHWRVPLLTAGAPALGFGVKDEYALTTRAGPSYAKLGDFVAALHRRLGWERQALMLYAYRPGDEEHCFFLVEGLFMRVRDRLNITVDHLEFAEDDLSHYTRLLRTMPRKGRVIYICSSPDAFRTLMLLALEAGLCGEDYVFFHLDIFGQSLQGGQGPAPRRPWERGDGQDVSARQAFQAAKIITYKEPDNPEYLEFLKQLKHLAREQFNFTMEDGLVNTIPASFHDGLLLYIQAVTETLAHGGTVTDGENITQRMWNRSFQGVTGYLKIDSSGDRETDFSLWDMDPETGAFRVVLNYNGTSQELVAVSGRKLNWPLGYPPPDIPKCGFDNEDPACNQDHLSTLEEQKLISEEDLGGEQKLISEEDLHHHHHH
Method: as §1

[4] = target: T1, mouse NPR1 extracellular domain …; test: SPR, mAb captured, 25 C
Method: as §1

[5] = target: T2, human NPR1 extracellular domain …; test: SPR, mAb captured, 25 C
Method: as §1

[6] = target: T3, monkey NPR1 extracellular domain …; test: SPR, mAb captured, 25 C
Method: as §1

B1: mAb22810 (antibody, V domains shown)
VH: EVQLVESGGGLVKPGGSLRLSCVVSGFTFRIYTMNWVRQAPGKGLEWVASISSSSSFINYADSLKGRFTISRDNAQNSLYLQMNSLRAEDTAIYYCARAAGNDVLPGRMDVWGQGTSVTVSS
VL: EIVLTQSPGTLSLSPGERATLSCRASQSVSSNYLAWYQQKPGQVPSLLIYGASSRATGIPDRFSGSGSGTDFTLTITRLEPEDFAVYYCQQYGISPWTFGQGTKVEIK
With B1 the “100 nM Ag Bound (RU)” value [1] was -2 RU, the “100 nM Ag Bound (RU)” value [2] was 9 RU and the “100 nM Ag Bound (RU)” value [3] was 0 RU. The “100 nM Ag Bound (RU)” value [4] was -1 RU, the “100 nM Ag Bound (RU)” value [5] was 4 RU and the “100 nM Ag Bound (RU)” value [6] was 1 RU. B1: no binding (tested: 100 nM) [6].

From patent US20240309103A1 (Regeneron, published 2024)
